Measured values reported in the supplement of paper PMC9170038.

Test system: MS2 coat protein
Experiment: apparent KD of MS2 coat protein; designed switch direction (-1 OFF switch, 1 ON switch): -1; higher = weaker reporter binding
How it was run: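 Transcription of designed RNA switches on Illumina chips was done by stalled E. coli RNA polymerase. SNAP-549-labelled MS2 coat protein was then titrated in doubling steps from 0.7 or 1.5 nM to 3 µM, with steps of 0.8–1.5 h at the lowest and 10–20 min at the highest concentration. The per-design median over clusters of curve-fitted normalised fluorescence is reported as apparent KD.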

[1] = input ligand: microRNA oligo, concentration not stated
[2] = Eterna round: R95, input ligand: FMN 200 uM
[3] = Eterna round: R95, input ligand: microRNA oligo, concentration not stated
[4] = Eterna round: R95, input ligand: none

Sequence	apparent KD of MS2 coat protein (input ligand: FMN 200 uM)	apparent KD of MS2 coat protein [1]	apparent KD of MS2 coat protein (input ligand: none)	apparent KD of MS2 coat protein [2]	apparent KD of MS2 coat protein [3]	apparent KD of MS2 coat protein [4]
ACCUCUACGCUUUCCAAGGGUAGACCUGGUGUUUGUCACACAUGAGGAUCACCCAUGUGCACUGUGCGAGUCGAACA [solution 38] (Eterna round: R96, puzzle: Sensor v2, turn-off variant 2)	49.5 nM	40.2 nM	50.6 nM			
ACCUUACUGGUCAGGAUAUACAGUCUUUGGUGUGUGUAGAAGGGACAUGAGGAUCACCCAUGUAGGUUGUUUUA [alecazam62b] (Eterna round: R97, puzzle: Brourd's mod of Exclusion 4)	237 nM		165 nM			
ACGAAGCUUUUUGCUCGUCACAUGAGGAUCACCCAUGUGGGCCCGGGCGCCCGGGCCGACAUCCCACUAGGACAUGU [#2] (Eterna round: R97, puzzle: Sensor, turn-off variant 1)	104 nM		122 nM			
ACGCACACGCACGCACGCACACAUGAGGAUCACCCAUGUAAUUAGGAUAUAUUGAAGAACAGAGAAUAGAAGGAAUUACUCAUG [Default title] (Eterna round: R96, puzzle: Exclusion NG 3)	105 nM	88 nM	70.7 nM			
ACGCAUUGCCUUUGGUAGUGCGUAACAUGAGGAUCACCCAUGUAGGAUAUGGUAGGCUUUGCUUACCAGAAGGACAUAAUAAUU [JL ENG3 1.01] (Eterna round: R96, puzzle: Exclusion NG 3)	54.1 nM	21.7 nM	26.1 nM			
ACGCUACAUGAGGAUCACCCAUGUGAGGAUAUUUGAUCCAGGCAGCAAAGGAUGAUACGGAGAAGGUACAUGGU [Eternabot (L1) Solution 35] (Eterna round: R97, puzzle: Exclusion 1)	265 nM		147 nM			
ACGGACUGAGGAUAUGCAUGCAGGAUACCUUAGUCCAAGGGACAUGAGGAUCACCCAUGUAGAAGGCGGAAAUA [Riedzaanor] (Eterna round: R97, puzzle: Exclusion 2)	26.1 nM		26.5 nM			
ACGUACUCUGUAGGAUAUCGAUGAUGCAUGAUUCGAGAAGGACAUGAGGAUCACCCAUGUUUCAAAAGCAUACUAUGUGUAGUA [Design #2] (Eterna round: R96, puzzle: Exclusion NG 1)	44.4 nM	13.6 nM	20.9 nM			
ACUCGCACUGUAAGGAUAUGCAAUUACGAAAGUGAGCAGAAGGUACAUGAGGAUCACCCAUGUGCGAAUCAGUG [Eternabot (Original) Solution 36] (Eterna round: R97, puzzle: Brourd's mod of Exclusion 4)	18.9 nM		20 nM			
ACUGGUCGAGGAUAUGCAAUCGUGCUUCGGCACGUAAGAUCACAUGAGGAUCACCCAUGUAGAAGGCGACCAGU [E2/3-A2] (Eterna round: R97, puzzle: Exclusion 2)	81.7 nM		21.2 nM			
ACUGGUGCAGGAUAUACAAUCGUGCUUCGGCACGUAAGGUCACAUGAGGAUCACCCAUGUAGAAGGGCACCAGU [E2/2-D1] (Eterna round: R97, puzzle: Exclusion 2)	177 nM		26.2 nM			
ACUGGUGCAGGAUAUGCAAUCGUGCUUCGGCACGUAAGGUCACAUGAGGAUCACCCAUGUAGAAGGGCACCAGU [E2/4-D1] (Eterna round: R97, puzzle: Exclusion 2)	33.2 nM		12.6 nM			
ACUUAUAGAGGAUAUACAGUUAAUUACAUGAGGAUCACCCAUGUUCUUCAAUGUAUAUAAGUAGAAGGCUAAAGGA [Mat - Exclusion 5 - Eli Mod - D6] (Eterna round: R97, puzzle: Exclusion 5)	198 nM		19.3 nM			
ACUUAUUGAGGAUAUACAGAAAAUUACAUGAGGAUCACCCAUGUUCUUCAAUGUAUAUAUGUAGAAGGCAGAAGAA [JL-ex5-4.26 Malcolm mod] (Eterna round: R97, puzzle: Exclusion 5)	29.3 nM		12.9 nM			
ACUUAUUGAGGAUAUACAGAUUAUUACAUGAGGAUCACCCAUGUUCUUCAAUGUAUAUAUGUAGAAGGCAGAAGAA [JL-ex5-4.25 Malcolm mod] (Eterna round: R97, puzzle: Exclusion 5)	179 nM		56.7 nM			
ACUUGUUGUCCUUGAUAUUACAUGAGGAUCACCCAUGUUAUUGUGAUUAUGAUGUGUAAGUUUGUUGCUCGUUUUAU [JR_STOV1_Sub066] (Eterna round: R97, puzzle: Sensor, turn-off variant 1)	84.7 nM		84 nM			
AGAAAAGCCCAUGACCGCAAGCUUUUUGCUUGUCUUACCACAUGAGGAUCACCCAUGUGACAUGGGCUCCUUAUAAU [Atcein] (puzzle: Sensor v3, turn-off variant 2)				13.2 nM	10.2 nM	11.1 nM
AGAAAGCAAGGAUAUACAAGUAAACGACGGAAAGUAGAGAGACAUGAGGAUCACCCAUGUAGAAGGUGCGAGAG [JR_Exclu2_Sub034] (puzzle: Exclusion 2)				24.7 nM	26.1 nM	26.2 nM
AGAAAUCUGUAGGAUAUGUUGAACACCGUGUACACAGAAGGGCAGACAUGAGGAUCACCCAUGUGGUGGGCCAG [Eternabot (L1) Solution 91] (Eterna round: R97, puzzle: Exclusion 6)	576 nM		469 nM			
AGAAAUGCCCAUGGCCGCAAGCUUUUCGCUUGUCUUACCACAUGAGGAUCACCCAUGUGACAUGGGCUCCUUAUAAU [Usdigeor] (puzzle: Sensor v3, turn-off variant 2)				12.3 nM		12 nM
AGAAGUAGCAACCGAUCCUACAUGAGGAUCACCCAUGUAGCAAGACGUGCACGCGAAGCUCGUCAGACUACCAGAUG [salish99_TOv1_r3_022] (puzzle: Sensor v3, turn-off variant 1)				216 nM	210 nM	168 nM
AGAAGUAGUAACCGAUCCUACAUGAGGAUCACCCAUGUAGCGAGACGUGCACGCGAAGCUCGUCAGACUACCAGAUG [salish99_TOv1_r3_025] (puzzle: Sensor v3, turn-off variant 1)				138 nM	139 nM	159 nM
